# Values of other authors as cited in paper PMC3320014.
# Molecular target: Protein Z-dependent protease inhibitor (Homo sapiens) (UniProt Q9UK55)
# UniProt Q9UK55, sequence (Q9UK55 22-444): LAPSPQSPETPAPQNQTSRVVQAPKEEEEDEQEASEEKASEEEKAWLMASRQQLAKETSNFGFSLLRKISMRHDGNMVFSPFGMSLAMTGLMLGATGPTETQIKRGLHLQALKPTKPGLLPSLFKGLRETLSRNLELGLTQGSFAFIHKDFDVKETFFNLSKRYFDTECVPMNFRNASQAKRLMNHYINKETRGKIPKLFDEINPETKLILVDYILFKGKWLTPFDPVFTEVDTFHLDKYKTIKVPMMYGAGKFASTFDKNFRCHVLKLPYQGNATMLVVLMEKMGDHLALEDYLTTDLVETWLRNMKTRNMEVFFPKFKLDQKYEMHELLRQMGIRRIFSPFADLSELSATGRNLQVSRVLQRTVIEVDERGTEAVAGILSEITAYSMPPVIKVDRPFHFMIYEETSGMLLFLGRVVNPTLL
substance,measurement,value
Protein Z (from UniProt P22891),Kd,7 nM
